# Test results from publication PMC3651781.
# B1: mmu-pre-let-7a-1+14U (structured_RNA)
# RNA: UGAGGUAGUAGGUUGUAUAGUUUUAGGGUCACACCCACCACUGGGAGAUAACUAUACAAUCUACUGUCUUUCCUUUUUUUUUUUUUU
# B2: mmu-pre-let-7a-1 (structured_RNA)
# RNA: UGAGGUAGUAGGUUGUAUAGUUUUAGGGUCACACCCACCACUGGGAGAUAACUAUACAAUCUACUGUCUUUCC
# Target: T1, His-Dis3l2 D389N (mouse, UniProt Q8CI75 1-870, D389N)
# T1 sequence: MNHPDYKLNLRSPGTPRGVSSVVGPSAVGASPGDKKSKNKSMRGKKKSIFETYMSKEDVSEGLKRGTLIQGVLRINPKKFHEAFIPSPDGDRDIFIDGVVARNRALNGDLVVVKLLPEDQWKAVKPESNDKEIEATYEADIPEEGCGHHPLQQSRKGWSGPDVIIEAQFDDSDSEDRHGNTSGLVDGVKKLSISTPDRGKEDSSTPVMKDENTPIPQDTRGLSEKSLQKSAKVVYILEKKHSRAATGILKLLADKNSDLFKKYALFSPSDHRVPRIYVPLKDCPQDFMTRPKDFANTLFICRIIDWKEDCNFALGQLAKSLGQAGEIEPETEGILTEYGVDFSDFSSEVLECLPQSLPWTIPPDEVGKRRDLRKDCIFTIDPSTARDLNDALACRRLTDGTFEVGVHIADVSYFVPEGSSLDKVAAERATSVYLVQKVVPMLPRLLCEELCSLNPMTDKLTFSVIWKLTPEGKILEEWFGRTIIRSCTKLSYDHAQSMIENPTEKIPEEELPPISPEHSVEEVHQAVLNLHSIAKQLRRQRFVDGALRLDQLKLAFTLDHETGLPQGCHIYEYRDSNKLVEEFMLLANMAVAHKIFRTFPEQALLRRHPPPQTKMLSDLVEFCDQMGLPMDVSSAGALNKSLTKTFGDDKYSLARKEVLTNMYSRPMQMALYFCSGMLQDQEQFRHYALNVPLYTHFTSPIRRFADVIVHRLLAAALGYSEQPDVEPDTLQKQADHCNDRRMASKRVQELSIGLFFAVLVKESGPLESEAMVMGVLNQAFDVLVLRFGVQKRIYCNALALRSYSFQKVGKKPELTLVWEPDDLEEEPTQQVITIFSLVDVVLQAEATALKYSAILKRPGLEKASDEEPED
# Experiment: EMSA
row,Binder,binding result
1,B1,binds
2,B2,no binding
